Measurements from patent US12257281B2, “Hydrophilic antibody-drug conjugates” (priority 2014, dated 2025).
Square brackets hold non-standard residues; d marks the D form. Peptide text beside a SMILES is read from it. * marks the point of attachment. Dolaproine = CO[C@@H]([C@@H]1CCCN1)[C@@H](C)C(=O)O; Hexanoyl(6-maleimido) = O=C1C=CC(=O)N1CCCCCC(=O)*; Dil = CC[C@H](C)[C@H](NC)[C@@H](CC(=O)O)OC; NMeV = CN[C@H](C(=O)O)C(C)C

Tests used:
[1] = Hydrophobic Interaction Chromatography (HIC) of 8-loaded ADCs; type: physicochemical; conditions: for HIC RT (min) h1F6 8-loads: 8-loaded antibody drug conjugates with antibody h1F6, Table 2; for HIC retention time: ADCs containing the drug linkers as 8 loads, Table 1
Protocol: The hydrophilicity index is measured as the retention time of a conjugate to that of the corresponding unconjugated targeting agent (alone) under high performance liquid chromatography (HPLC) conditions, as further described herein. […] If a different hydrophobic interaction column and/or method is used, it can be calibrated using conjugates from Tables 2 as references to determine reference conjugate mobilities (elution times) on the selected column and/or method. The determined reference mobilities on the selected hydrophobic interaction column and/or method can then be used to calculate a hydrophilicity index of a test article (as would be determined following Example 3). For example, an auristatin T-Glu-Dpr-MA, an me-MMAF and an mc-vc-PABC-MMAE drug linkers can be used to form conjugates to use as references. In another example, an auristatin T-Glu-Dpr-MA-h1F6 ADC, an h1F6-mc-MMAF and an h1F6-mc-vc-PABC-MMAE ADC can be used as references.
Analysis of the ADCs was performed using Hydrophobic Interaction Chromatography (HIC). HIC is performed by running a linear gradient from 0-100% Mobile Phase B (MPB) where Mobile Phase A (MPA) consists of 1.5 M ammonium sulfate, 25 mM potassium phosphate, pH 7.0, and MPB consists of 75% 25 mM potassium phosphate, pH 7.0, 25% isopropanol. Separation was achieved using a Tosoh t-Butyl column (TSK-Gel Butyl-NPR 4.6×35 mm, PN: 14947) heated to 25° C. Test articles were prepared by diluting 70 μg of ADC into MPA such that the total salt concentration is greater than or equal to 1.0 M ammonium sulfate at a total volume of 100 μL. Samples were injected at 90 μL and eluted using a 12 minute gradient. Monitoring at λ=280 nm.

786-O tumors = assay: Single dose mouse xenograft studies, h1F6 ADCs; type: in vivo; conditions: FIG. 6
Excerpt: 786-O cells were obtained from American Type Culture Collection (ATCC, Manassas, VA) and propagated in culture conditions recommended by ATCC. To establish 786-O tumors, 5×10^6 cells were implanted into the right flank of athymic nu/nu female donor mice (Harlan, Indianapolis, IN). When donor tumors were approximately 500 mm^3, mice were euthanized and tumors were aseptically excised and ˜0.5×0.5 mm fragments were loaded into a sterilized 13-gauge trocar for implantation into nu/nu mice. When tumors reached ˜100 mm^3, mice were randomly allocated to treatment groups.
Experimental groups were treated via intraperitoneal injection with compounds at the dose and schedule indicated or alternatively left untreated. Tumors were measured periodically and volumes were calculated using the formula V=((L×W^2)/2). Animals were euthanized when tumors reached the volume of 1000 mm^3 or at the end of the study, whichever came first.
Tumor quadrupling times were chosen as time to endpoint (TTE), which was determined by using the non-liner regression analysis for exponential growth of each individual tumor growth data sets from each experimental animal. The median tumor quadrupling time was calculated based on the tumor volume at the beginning of treatment.
Statistical analysis was conducted using Prism (GraphPad) software for Windows. […]

Molecule | HIC RT (min) h1F6 8-loads [1] [min] | HIC retention time [1] [min] | activity of 8-loaded versus 4-loaded ADC (786-O tumors)
maleimidocaproyl-valine-citrulline-p-aminobenzyl-carbamoyl MMAF [mc-vc-PABC-MMAF] | 8.2 | 8.2 | 
CC[C@H](C)[C@@H]([C@@H](CC(=O)N1CCC[C@H]1[C@H](OC)[C@@H](C)C(=O)N[C@@H](Cc1ccccc1)C(=O)O)OC)N(C)C(=O)[C@@H](NC(=O)[C@H](C(C)C)N(C)C(=O)CCCCCN1C(=O)C=CC1=O)C(C)C [mc-MMAF, maleimidocaproyl MMAF] ({Hexanoyl(6-maleimido)}-[NMeV]V[Dil][Dolaproine]F-OH) | 7.0 | 7.0 | 
maleimidocaproyl-valine-citrulline-p-aminobenzyl-carbamoyl MMAE [mc-vc-PABC-MMAE] | 9.8 | 9.8 | 
h1F6-me-vc-PABC-MMAF (conjugate, chains of the INN, looked up, me-vc-PABC-MMAF drug conjugate) VH: QVQLVQSGAEVKKPGASVKVSCKASGYTFTNYGMNWVRQAPGQGLKWMGWINTYTGEPTYADAFKGRVTMTRDTSISTAYMELSRLRSDDTAVYYCARDYGDYGMDYWGQGTTVTVSS VL: DIVMTQSPDSLAVSLGERATINCRASKSVSTSGYSFMHWYQQKPGQPPKLLIYLASNLESGVPDRFSGSGSGTDFTLTISSLQAEDVAVYYCQHSREVPWTFGQGTKVEIK |  |  | 4-loaded ADC gave better activity than the 8-loaded ADC
